The target in assay [1] is T1, human CD47 overexpressed on CHO cells (human, UniProt Q08722 19-292).
T1 construct: CHO cells transfected with pCHO1.0 bearing a human CD47 cDNA (Sino Biological); also called hCD47; CHO-hCD47 cells
In words: flow cytometry on CHO-hCD47 cells, PE anti-human IgG.
Procedure: Then the cells were washed at least two times and incubated with a secondary antibody (PE-labelled goat anti-human IgG antibody, Southern Biotech, final concentration of 5 μg/ml) in PBS with 0.1% BSA on ice for 30 min (in dark). The cells were washed at least two times and analyzed by flow cytometry. Flow cytometry was performed on Accuri C6 System (BD Biosciences) and a concentration-dependent graph was fitted with GraphPad, according to MFI of the cells.

In assay [2] the target is T2, mouse CD47-Fc (mouse, UniProt Q61735 19-140, limits assumed).
T2 construct: not shown: Fc part
T2 sequence (looked up): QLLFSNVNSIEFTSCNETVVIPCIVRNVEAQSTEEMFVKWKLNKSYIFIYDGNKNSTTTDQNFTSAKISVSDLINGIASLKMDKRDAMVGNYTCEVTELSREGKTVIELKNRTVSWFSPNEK
Put plainly: bio-light interferometry (ForteBio), IgG1 on AHQ tip, mouse CD47-Fc in solution, bivalent.

Assay [3] deals with T3, Human CD47-Fc (human, UniProt Q08722 19-139, limits assumed).
T3 construct: the whole entry is named here; also called human CD47 (hCD47); CD47 antigen; not shown: Fc part
In words: bio-light interferometry (ForteBio), IgG1 on AHQ tip, human CD47-Fc 100 nM in solution, bivalent.

In assay [4] the target is T3, Human CD47-Fc. In words: bio-light interferometry (ForteBio), human CD47-Fc on AHQ tip, Fab 100 nM in solution, monovalent.
Assay [5] addresses T4, cynomolgus CD47-Fc (cynomolgus, UniProt A0A2K5X523 19-139).
T4 construct: not shown: Fc part
In words: bio-light interferometry (ForteBio), IgG1 on AHQ tip, cynomolgus CD47-Fc 100 nM in solution, bivalent.

In assay [6] the target is T2, mouse CD47-Fc. In words: bio-light interferometry (ForteBio), IgG1 on AHQ tip, mouse CD47-Fc 100 nM in solution, bivalent.
Procedure: In brief, Sensors were equilibrated off-line in assay buffer for 30 min and then tested on-line for 60 sec to establish the base line. The purified antibody obtained as described above was loaded on-line onto AHQ sensor (ForteBio) to perform ForteBio affinity measurement. Then, the sensor loaded with the antibody was exposed to 100 nM of CD47 antigen for 5 min, followed by transferring the sensor into the assay buffer for 5 min to measure the dissociation rate. A kinetics analysis was performed using the 1:1 binding model.
In assay [7] the target is T1, human CD47 overexpressed on CHO cells. Put plainly: flow cytometry competition on CHO-hCD47 cells against 200 nM mouse Fc-labelled SIRPα.
Procedure: Then the cells were washed 3 times and subsequently incubated with a secondary antibody, goat-anti-mouse IgG-APC (Allophycocyanin) (Biolegend), in PBS with 0.1% BSA on ice for 30 min (in dark). Cells were washed 3 times. Flow cytometry assay was performed on Accuri C6 System (BD Biosciences) and MFI was calculated with C6 software.

The source of these data is patent US20200181259A1 (Innovent, published 2020).

B1: ADI-30794 in IgG1 format produced in yeast cells (antibody, V domains shown)
VH: EVQLLESGGGLVQPGGSLRLSCAASGFTFGNYAMSWVRQAPGKGLEWVSAISGSGGKTYYADSVKGRFTISRDNSKNTLYLQMNSLRAEDTAVYYCAKTAIYYGFDLWGRGTLVTVSS
VL: DIQLTQSPSSVSASVGDRVTITCRASQGISSWLAWYQQKPGKAPKLLIYGASSLQSGVPSRFSGSGSGTDFTLTISSLQPEDFATYYCQQKNPFPPFFGGGTKVEIKR
notes: also called ADI 30794-IgG1
In assay [1], B1 came in with an EC50 of 3.7 nM. Moreover, in assay [2], the binding result is given as “no binding (tested: 100 nM)”. Moreover, the Kd in assay [3] turned out to be 0.562 nM.

B2: ADI-30793 in Fab format (Fab, V domains shown)
VH: EVQLLESGGGLVQPGGSLRLSCAASGFTFDSYAMTWVRQAPGKGLEWVSVISGSGGKTYYADSVKGRFTISRDNSKNTLYLQMNSLRAEDTAVYYCAKTHLYYGFDLWGRGTLVTVSS
VL: DIQLTQSPSSVSASVGDRVTITCRASQGISSWLAWYQQKPGKAPKLLIYGASSLQSGVPSRFSGSGSGTDFTLTISSLQPEDFATYYCQQKNPFPPFFGGGTKVEIKR
For B2, the Kd in assay [4] stood at 9.34 nM.

B3: ADI-29371 in Fab format (Fab, V domains shown)
VH: EVQLLESGGGLVQPGGSLRLSCAASGFTFGNYAMSWVRQAPGKGLEWVSMISGGGSTYYADSVKGRFTISRDNSKNTLYLQMNSLRAEDTAVYYCAKTPIYYGFDLWGRGTLVTVSS
VL: DIQLTQSPSSVSASVGDRVTITCRASQGISSWLAWYQQKPGKAPKLLIYGASSLQSGVPSRFSGSGSGTDFTLTISSLQPEDFATYYCQQKNPFPPTFGGGTKVEIKR
Consider B3, for which the Kd in assay [4] worked out at 218 nM.

B4: ADI-29341 in Fab format (Fab, V domains shown)
VH: QVQLQESGPGLVKPSETLSLTCTVSGGSIEHYYWSWIRQPPGKGLEWIGYIYYSGSTNYNPSLKSRVTISVDTSKNQFSLKLSSVTAADTAVYYCARGKTGSAAWGQGTLVTVSS
VL: DIQMTQSPSSVSASVGDRVTITCRASQGISRWLAWYQQKPGKAPKLLIYAASSLQSGVPSRFSGSGSGTDFTLTISSLQPEDFATYYCQQTVSFPITFGGGTKVEIKR
Take B4: the Kd in assay [4] stood at 4.62 nM.

B5: ADI-26591 in IgG1 format, expressed in yeast (antibody, V domains shown)
VH: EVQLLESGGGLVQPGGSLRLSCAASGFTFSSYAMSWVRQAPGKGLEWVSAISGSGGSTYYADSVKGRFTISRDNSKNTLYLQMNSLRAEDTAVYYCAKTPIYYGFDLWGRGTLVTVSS
VL: DIQLTQSPSSVSASVGDRVTITCRASQGISSWLAWYQQKPGKAPKLLIYGASSLQSGVPSRFSGSGSGTDFTLTISSLQPEDFATYYCQQKNPFPPTFGGGTKVEIKR
notes: also called ADI 26591-IgG1
Consider B5, for which the EC50 in assay [1] was 3.77 nM. Besides, the binding result in assay [2] is reported as “no binding (tested: 100 nM)”. Moreover, the Kd is 5.38 nM in assay [3] and 3.39 nM in assay [5].

B6: ADI-30794 in Fab format (Fab, V domains shown)
VH: EVQLLESGGGLVQPGGSLRLSCAASGFTFGNYAMSWVRQAPGKGLEWVSAISGSGGKTYYADSVKGRFTISRDNSKNTLYLQMNSLRAEDTAVYYCAKTAIYYGFDLWGRGTLVTVSS
VL: DIQLTQSPSSVSASVGDRVTITCRASQGISSWLAWYQQKPGKAPKLLIYGASSLQSGVPSRFSGSGSGTDFTLTISSLQPEDFATYYCQQKNPFPPFFGGGTKVEIKR
With B6, in assay [4], the Kd is 3.13 nM.

B7: ADI-30793 in IgG1 format produced in yeast cells (antibody, V domains shown)
VH: EVQLLESGGGLVQPGGSLRLSCAASGFTFDSYAMTWVRQAPGKGLEWVSVISGSGGKTYYADSVKGRFTISRDNSKNTLYLQMNSLRAEDTAVYYCAKTHLYYGFDLWGRGTLVTVSS
VL: DIQLTQSPSSVSASVGDRVTITCRASQGISSWLAWYQQKPGKAPKLLIYGASSLQSGVPSRFSGSGSGTDFTLTISSLQPEDFATYYCQQKNPFPPFFGGGTKVEIKR
notes: also called ADI 30793-IgG1
In turn, B7 returned an EC50 in assay [1] of 2.92 nM. The Kd in assay [3] came out at 0.632 nM; in assay [6] it was 4.57 nM; in assay [5], 0.584 nM.

B8: ADI-26624 in Fab format (Fab, V domains shown)
VH: QVQLQESGPGLVKPSETLSLTCTVSGGSISSYYWSWIRQPPGKGLEWIGYIYYSGSTNYNPSLKSRVTISVDTSKNQFSLKLSSVTAADTAVYYCARGKSAFDPWGQGTLVTVSS
VL: DIQMTQSPSSVSASVGDRVTITCRASQGISRWLAWYQQKPGKAPKLLIYAASSLQSGVPSRFSGSGSGTDFTLTISSLQPEDFATYYCQQADLHPPLTFGGGTKVEIKR
As to B8, the Kd in assay [4] was 65.8 nM.

B9: ADI-29336 in Fab format (Fab, V domains shown)
VH: QVQLQESGPGLVKPSETLSLTCTVSGGSISNYYWSWIRQPPGKGLEWIGTIYYSGSTRYNPSLKSRVTISVDTSKNQFSLKLSSVTAADTAVYYCARGKSAFNPWGQGTLVTVSS
VL: DIQMTQSPSSVSASVGDRVTITCRASQGISRWLAWYQQKPGKAPKLLIYAASSLQSGVPSRFSGSGSGTDFTLTISSLQPEDFATYYCQQADLHPPLTFGGGTKVEIKR
B9: in assay [4], the Kd amounted to 1.32 nM.

B10: ADI-26624 in IgG1 format produced in yeast cells (antibody)
heavy: not shown
light: DIQMTQSPSSVSASVGDRVTITCRASQGISRWLAWYQQKPGKAPKLLIYAASSLQSGVPSRFSGSGSGTDFTLTISSLQPEDFATYYCQQADLHPPLTFGGGTKVEIKRTVAAPSVFIFPPSDEQLKSGTASVVCLLNNFYPREAKVQWKVDNALQSGNSQESVTEQDSKDSTYSLSSTLTLSKADYEKHKVYACEVTHQGLSSPVTKSFNRGEC
notes: also called ADI26624-IgG1
The molecule B10 displayed an EC50 in assay [1] of 2.25 nM. This molecule also displayed an IC50 in assay [7] of 11.2 nM. Further, the binding result in assay [2] is “no binding (tested: 100 nM)”. The molecule further had a Kd in assay [3] of 1.05 nM.

B11: ADI-26624 in IgG4 format produced in CHO cells (antibody)
heavy: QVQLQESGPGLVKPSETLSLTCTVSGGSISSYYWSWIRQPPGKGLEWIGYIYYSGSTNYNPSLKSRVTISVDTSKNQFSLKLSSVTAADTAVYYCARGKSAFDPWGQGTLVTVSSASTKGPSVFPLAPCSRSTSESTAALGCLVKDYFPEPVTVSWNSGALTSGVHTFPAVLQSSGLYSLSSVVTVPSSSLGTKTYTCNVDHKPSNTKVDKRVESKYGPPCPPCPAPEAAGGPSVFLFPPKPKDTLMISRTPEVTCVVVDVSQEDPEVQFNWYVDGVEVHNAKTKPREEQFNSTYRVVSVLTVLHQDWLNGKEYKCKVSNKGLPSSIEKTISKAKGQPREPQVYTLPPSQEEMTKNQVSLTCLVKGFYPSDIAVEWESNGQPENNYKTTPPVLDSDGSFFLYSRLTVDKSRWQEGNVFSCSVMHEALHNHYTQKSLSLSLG
light: DIQMTQSPSSVSASVGDRVTITCRASQGISRWLAWYQQKPGKAPKLLIYAASSLQSGVPSRFSGSGSGTDFTLTISSLQPEDFATYYCQQADLHPPLTFGGGTKVEIKRTVAAPSVFIFPPSDEQLKSGTASVVCLLNNFYPREAKVQWKVDNALQSGNSQESVTEQDSKDSTYSLSSTLTLSKADYEKHKVYACEVTHQGLSSPVTKSFNRGEC
notes: also called ADI26624-IgG4
For B11, in assay [7], the IC50 was 1.04 nM.

B12: ADI-29336 in IgG1 format produced in yeast cells (antibody)
heavy: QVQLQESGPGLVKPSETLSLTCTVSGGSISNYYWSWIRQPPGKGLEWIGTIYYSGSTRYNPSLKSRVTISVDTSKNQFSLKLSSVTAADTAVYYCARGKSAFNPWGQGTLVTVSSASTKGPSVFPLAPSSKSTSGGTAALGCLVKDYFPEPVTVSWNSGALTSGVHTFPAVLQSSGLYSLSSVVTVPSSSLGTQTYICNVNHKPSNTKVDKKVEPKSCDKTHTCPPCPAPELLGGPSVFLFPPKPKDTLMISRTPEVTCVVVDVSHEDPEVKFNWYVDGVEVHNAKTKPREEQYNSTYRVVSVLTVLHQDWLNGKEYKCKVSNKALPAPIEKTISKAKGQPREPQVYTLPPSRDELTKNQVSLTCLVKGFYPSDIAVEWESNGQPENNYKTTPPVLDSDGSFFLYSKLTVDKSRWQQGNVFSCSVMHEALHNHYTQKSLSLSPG
light: DIQMTQSPSSVSASVGDRVTITCRASQGISRWLAWYQQKPGKAPKLLIYAASSLQSGVPSRFSGSGSGTDFTLTISSLQPEDFATYYCQQADLHPPLTFGGGTKVEIKRTVAAPSVFIFPPSDEQLKSGTASVVCLLNNFYPREAKVQWKVDNALQSGNSQESVTEQDSKDSTYSLSSTLTLSKADYEKHKVYACEVTHQGLSSPVTKSFNRGEC
notes: also called ADI29336-IgG1
In assay [1], B12 displayed an EC50 of 6.72 nM. The IC50 in assay [7] came to 8.55 nM. Moreover, the binding result in assay [2] was “no binding (tested: 100 nM)”. For the same molecule, the Kd in assay [3] amounted to 0.477 nM; in assay [5] it was 0.544 nM.

B13: ADI-29336 in IgG4 format produced in CHO cells (antibody)
heavy: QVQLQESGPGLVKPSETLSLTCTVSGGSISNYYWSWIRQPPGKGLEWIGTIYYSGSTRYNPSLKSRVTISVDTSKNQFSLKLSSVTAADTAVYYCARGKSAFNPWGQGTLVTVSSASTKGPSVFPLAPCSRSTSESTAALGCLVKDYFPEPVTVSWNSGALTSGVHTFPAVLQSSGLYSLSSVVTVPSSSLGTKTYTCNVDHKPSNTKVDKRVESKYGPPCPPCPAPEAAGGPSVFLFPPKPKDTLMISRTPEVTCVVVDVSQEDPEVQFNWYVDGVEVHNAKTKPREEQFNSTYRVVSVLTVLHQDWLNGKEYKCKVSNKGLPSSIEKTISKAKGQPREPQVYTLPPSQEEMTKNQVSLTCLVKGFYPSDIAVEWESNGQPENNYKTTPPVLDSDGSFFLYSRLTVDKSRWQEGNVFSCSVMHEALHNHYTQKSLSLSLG
light: DIQMTQSPSSVSASVGDRVTITCRASQGISRWLAWYQQKPGKAPKLLIYAASSLQSGVPSRFSGSGSGTDFTLTISSLQPEDFATYYCQQADLHPPLTFGGGTKVEIKRTVAAPSVFIFPPSDEQLKSGTASVVCLLNNFYPREAKVQWKVDNALQSGNSQESVTEQDSKDSTYSLSSTLTLSKADYEKHKVYACEVTHQGLSSPVTKSFNRGEC
notes: also called ADI29336-IgG4
Molecule B13 showed an EC50 in assay [1] of 2.48 nM. The molecule further had an IC50 in assay [7] of 1.39 nM.

B14: ADI-29341 in IgG1 format produced in yeast cells (antibody)
heavy: not shown
light: DIQMTQSPSSVSASVGDRVTITCRASQGISRWLAWYQQKPGKAPKLLIYAASSLQSGVPSRFSGSGSGTDFTLTISSLQPEDFATYYCQQTVSFPITFGGGTKVEIKRTVAAPSVFIFPPSDEQLKSGTASVVCLLNNFYPREAKVQWKVDNALQSGNSQESVTEQDSKDSTYSLSSTLTLSKADYEKHKVYACEVTHQGLSSPVTKSFNRGEC
notes: also called ADI29341-IgG1
In assay [1], B14 gave an EC50 of 3.34 nM. In addition, the IC50 in assay [7] was 2.48 nM. In addition, the binding result in assay [2] was “no binding (tested: 100 nM)”. The Kd in assay [3] was found to be 0.501 nM.

B15: ADI-29341 in IgG4 format produced in CHO cells (antibody)
heavy: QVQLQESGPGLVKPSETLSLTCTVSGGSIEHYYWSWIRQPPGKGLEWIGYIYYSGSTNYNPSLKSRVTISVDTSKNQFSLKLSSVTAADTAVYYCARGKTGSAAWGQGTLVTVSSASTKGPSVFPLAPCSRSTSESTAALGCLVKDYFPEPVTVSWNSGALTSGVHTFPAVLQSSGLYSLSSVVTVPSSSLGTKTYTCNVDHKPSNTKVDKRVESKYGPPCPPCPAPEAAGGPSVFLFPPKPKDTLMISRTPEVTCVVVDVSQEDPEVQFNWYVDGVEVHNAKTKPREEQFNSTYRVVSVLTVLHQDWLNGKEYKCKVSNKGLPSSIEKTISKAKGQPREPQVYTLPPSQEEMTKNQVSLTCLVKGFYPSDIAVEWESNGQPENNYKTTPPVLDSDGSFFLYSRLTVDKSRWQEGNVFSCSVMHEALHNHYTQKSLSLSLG
light: DIQMTQSPSSVSASVGDRVTITCRASQGISRWLAWYQQKPGKAPKLLIYAASSLQSGVPSRFSGSGSGTDFTLTISSLQPEDFATYYCQQTVSFPITFGGGTKVEIKRTVAAPSVFIFPPSDEQLKSGTASVVCLLNNFYPREAKVQWKVDNALQSGNSQESVTEQDSKDSTYSLSSTLTLSKADYEKHKVYACEVTHQGLSSPVTKSFNRGEC
notes: also called ADI29341-IgG4
B15 registered an EC50 in assay [1] of 1.89 nM. In addition, the IC50 in assay [7] stood at 0.604 nM.

B16: ADI-29371 in IgG4 format produced in CHO cells (antibody)
heavy: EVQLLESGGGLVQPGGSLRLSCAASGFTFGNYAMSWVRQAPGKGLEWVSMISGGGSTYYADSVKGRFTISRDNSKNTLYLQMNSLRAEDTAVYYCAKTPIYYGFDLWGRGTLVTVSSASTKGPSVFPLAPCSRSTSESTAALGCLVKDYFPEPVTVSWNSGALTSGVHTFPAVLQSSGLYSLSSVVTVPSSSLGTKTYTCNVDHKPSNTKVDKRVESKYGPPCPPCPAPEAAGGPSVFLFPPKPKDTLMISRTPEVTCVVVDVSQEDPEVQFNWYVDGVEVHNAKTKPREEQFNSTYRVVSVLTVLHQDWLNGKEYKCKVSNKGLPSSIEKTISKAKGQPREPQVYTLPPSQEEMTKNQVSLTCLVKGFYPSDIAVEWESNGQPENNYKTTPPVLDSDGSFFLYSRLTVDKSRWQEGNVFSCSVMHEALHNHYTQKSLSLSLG
light: DIQLTQSPSSVSASVGDRVTITCRASQGISSWLAWYQQKPGKAPKLLIYGASSLQSGVPSRFSGSGSGTDFTLTISSLQPEDFATYYCQQKNPFPPTFGGGTKVEIKRTVAAPSVFIFPPSDEQLKSGTASVVCLLNNFYPREAKVQWKVDNALQSGNSQESVTEQDSKDSTYSLSSTLTLSKADYEKHKVYACEVTHQGLSSPVTKSFNRGEC
notes: also called ADI 29371-IgG4
Take B16: in assay [1], the EC50 worked out at 2.31 nM.

B17: ADI-29371 in IgG1 format produced in yeast cells (antibody)
heavy: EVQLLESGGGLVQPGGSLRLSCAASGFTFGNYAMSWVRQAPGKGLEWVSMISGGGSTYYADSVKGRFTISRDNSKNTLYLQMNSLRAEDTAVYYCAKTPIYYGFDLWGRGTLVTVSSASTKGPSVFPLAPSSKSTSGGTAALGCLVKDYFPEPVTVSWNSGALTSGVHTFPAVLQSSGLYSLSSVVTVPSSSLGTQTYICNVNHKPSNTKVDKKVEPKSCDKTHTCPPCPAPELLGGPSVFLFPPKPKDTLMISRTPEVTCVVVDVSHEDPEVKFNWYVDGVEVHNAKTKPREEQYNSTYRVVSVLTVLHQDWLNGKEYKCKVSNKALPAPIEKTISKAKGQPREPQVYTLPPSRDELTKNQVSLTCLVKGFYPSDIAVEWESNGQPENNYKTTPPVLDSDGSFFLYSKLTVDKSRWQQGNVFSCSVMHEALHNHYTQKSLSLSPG
light: DIQLTQSPSSVSASVGDRVTITCRASQGISSWLAWYQQKPGKAPKLLIYGASSLQSGVPSRFSGSGSGTDFTLTISSLQPEDFATYYCQQKNPFPPTFGGGTKVEIKRTVAAPSVFIFPPSDEQLKSGTASVVCLLNNFYPREAKVQWKVDNALQSGNSQESVTEQDSKDSTYSLSSTLTLSKADYEKHKVYACEVTHQGLSSPVTKSFNRGEC
notes: also called ADI 29371-IgG1
Turning to B17, in assay [1], the response was half-maximal at 2.13 nM (EC50). For the same molecule, the binding result in assay [2] is recorded as “no binding (tested: 100 nM)”. In addition, the Kd amounted to 1.95 nM in assay [3] and 1.41 nM in assay [5].
